Data on four molecules can be found in publication PMC9482650, “Quantitative fragmentomics allow affinity mapping of interactomes” (Nature Communications, 2022).

Holding throughout (assay): PDZ-AP-MS, biotinylated MBP-PDZ baits
What all share (type): binding, human

Assay [1] concerns HeLa cell extract preys. Conditions: for Ratio: fold enrichment of prey; for Difference: log2 enrichment of prey. On the procedure:
(§1) For PDZ-AP-MS experiments, PDZ domains were cloned as His6-AviTag-MBP-PDZ constructs. For co-expression with BirA, E. coli BL21(DE3) cells were co-transformed with His6-AviTag-MBP, or His6-AviTag-MBP-PDZ-coding and PET21a-BirA (Addgene #20857) plasmids. Simultaneously to IPTG induction, 50 µM biotin was added to the media. After cell harvesting, the lysis buffer was also supplemented with 50 µM biotin. Otherwise, expression and double affinity purification was identical as previously described in details.
(§2) For PBM-AP-MS experiments, 30 μl streptavidin resin was mixed with biotin or peptide at 50–60 μM concentration in 6–6.5 resin volume for 60 min to achieve resin saturation. For PDZ-AP-MS experiments, 30 μl streptavidin resin was mixed with biotinylated MBP or MBP-PDZ at 40-50 μM concentration in >1000× resin volume for 60 min to achieve resin saturation. After saturation, resins were washed a single time (ten resin volume, holdup buffer), and were depleted with biotin (1 mM biotin, 5–10 resin volume, 10 min). Finally, resins were washed two times. 0.5 ml 2 mg/ml cell lysate was added to the dry resin (1 mg total input) and were incubated at 4 °C for 2 h. Then, the beads were washed three times with 10 resin volume buffer containing: 50 mM TRIS pH 8.5, 150 mM NaCl, 1% TritonX-100, 10× complete EDTA-free protease inhibitor cocktail, 2 mM EDTA, 1 mM TCEP. Then, the beads were washed two times with ten resin volume buffer containing: 50 mM TRIS pH 8.5, 150 mM NaCl, 1 mM TCEP. Finally, captured protein was eluted from the resin in two steps and the eluted fractions were pooled. For each elution the beads were incubated for 30 min with three resin volume buffer containing: 20 mM TRIS pH8.5, 100 mM NaCl, 500 μM TCEP, 8 M Urea. Between each step, the beads were separated by mild centrifugation and the supernatant was removed by gentle pipetting.
(§3) The samples were precipitated with TCA 20% overnight at 4 °C and centrifuged at 14,000 rpm for 10 min at 4 °C. The protein pellets were washed twice with 1 mL cold acetone and air dried. The protein extracts were solubilized in urea 8 M, reduced with 5 mM TCEP for 30 min, and alkylated with 10 mM iodoacetamide for 30 min in the dark. Double digestion was performed at 37 °C with 500 ng endoproteinase Lys-C for 4 h, followed by fourfold dilution and an overnight digestion with 500 ng trypsin. Peptide mixtures were then desalted on C18 spin-column and dried on Speed-Vacuum.
(§4) Samples were analyzed using an Ultimate 3000 nano-RSLC (Thermo Scientific, San Jose California) coupled in line with a LTQ-Orbitrap ELITE mass spectrometer via a nano-electrospray ionization source (Thermo Scientific, San Jose California). Peptide mixtures were injected in 0.1% TFA on a C18 Acclaim PepMap100 trap-column (75 µm ID × 2 cm, 3 µm, 100 Å, Thermo Fisher Scientific) for 3 min at 5 µL/min with 2% ACN, 0.1% FA in H2O and then separated on a C18 Accucore nano-column (75 µm ID × 50 cm, 2.6 µm, 150 Å, Thermo Fisher Scientific) at 220 nl/min and 38 °C with a 90 min linear gradient from 5% to 30% buffer B (A: 0.1% FA in H2O/B: 99% ACN, 0.1% FA in H2O), regeneration at 5% B. The mass spectrometer was operated in positive ionization mode, in data-dependent mode with survey scans from m/z 350–1500 acquired in the Orbitrap at a resolution of 120,000 at m/z 400. The 20 most intense peaks from survey scans were selected for further fragmentation in the Linear Ion Trap with an isolation window of 2.0 Da and were fragmented by CID with normalized collision energy of 35%. (TOP20CID method) Unassigned and single charged states were excluded from fragmentation. The Ion Target Value for the survey scans (in the Orbitrap) and the MS2 mode (in the Linear Ion Trap) were set to 1E6 and 5E3 respectively and the maximum injection time was set to 100 ms for both scan modes. Dynamic exclusion was set to 20 s after one repeat count with mass width at ±10 ppm. […]

Assay [2] has as its system HaCat cell extract preys. Conditions: for Difference log2: bait TX1BP3 PDZ vs MBP, enrichment of prey; for Ratio TX1BP3/MBP: bait TX1BP3 PDZ, fold change of prey. On the procedure:
as §1, §2, §3, §4

The test system of assay [3] is Jurkat cell extract preys. Conditions: for Difference log2: enrichment of prey. On the procedure:
as §1, §2, §3, §4

Setting [4] is: PDZ-AP-MS fold change of the PBM-protein prey, bait MBP-PDZ DLG1_1.
[5] abbreviates: PDZ-AP-MS fold change of the PBM-protein prey, bait MBP-PDZ DLG1_2.
The mark [6] stands for this setting: PDZ-AP-MS fold change of the PBM-protein prey, bait MBP-PDZ SCRIB_1.
Where [7] appears, read: PDZ-AP-MS fold change of the PBM-protein prey, bait MBP-PDZ SCRIB_2.
Setting [8] is: PDZ-AP-MS fold change of the PBM-protein prey, bait MBP-PDZ SNX27.
The mark [9] stands for this setting: PDZ-AP-MS fold change of the PBM-protein prey, bait MBP-PDZ TX1BP3.

B1: ALDH9A1 (protein, UniProt P49189 1-494, looked up)
4-trimethylaminobutyraldehyde …: MSTGTFVVSQPLNYRGGARVEPADASGTEKAFEPATGRVIATFTCSGEKEVNLAVQNAKAAFKIWSQKSGMERCRILLEAARIIREREDEIATMECINNGKSIFEARLDIDISWQCLEYYAGLAASMAGEHIQLPGGSFGYTRREPLGVCVGIGAWNYPFQIASWKSAPALACGNAMVFKPSPFTPVSALLLAEIYSEAGVPPGLFNVVQGGAATGQFLCQHPDVAKVSFTGSVPTGMKIMEMSAKGIKPVTLELGGKSPLIIFSDCDMNNAVKGALMANFLTQGQVCCNGTRVFVQKEILDKFTEEVVKQTQRIKIGDPLLEDTRMGPLINRPHLERVLGFVKVAKEQGAKVLCGGDIYVPEDPKLKDGYYMRPCVLTNCRDDMTCVKEEIFGPVMSILSFDTEAEVLERANDTTFGLAAGVFTRDIQRAHRVVAELQAGTCFINNYNVSPVELPFGGYKKSGFGRENGRVTIEYYSQLKTVCVEMGDVESAF
For the molecule B1, the “Fold changes, HeLa, DLG1_1” value in assay [1] (setting [4]) was determined as 0.965. The “Fold changes, HeLa, DLG1_2” value in assay [1] (setting [5]) is given as 0.6499. For the same molecule, the “Fold changes, HeLa, SCRIB_1” value in assay [1] (setting [6]) came to 1.5654. The “Fold changes, HeLa, SCRIB_2” value in assay [1] (setting [7]) stood at 0.9621. Further, in assay [1] (setting [8]), the “Fold changes, HeLa, SNX27” value is given as 23.2299. For the same molecule, the “Fold changes, HeLa, TX1BP3” value in assay [1] (setting [9]) was 0.8902. For the same molecule, in assay [2] (setting [4]), the “Fold changes, HaCat, DLG1_1” value is listed as 0.7692. Also, the “Fold changes, HaCat, DLG1_2” value in assay [2] (setting [5]) turned out to be 1.032. Besides, in assay [2] (setting [6]), the “Fold changes, HaCat, SCRIB_1” value came to 3.899. The “Fold changes, HaCat, SCRIB_2” value in assay [2] (setting [7]) turned out to be 0.6746. Also, the “Fold changes, HaCat, SNX27” value in assay [2] (setting [8]) turned out to be 57.4815. Besides, the “Fold changes, HaCat, TX1BP3” value in assay [2] (setting [9]) was found to be 0.8437. In assay [3] (setting [4]), the “Fold changes, Jurkat, DLG1_1” value is 0.4996. Further, in assay [3] (setting [5]), the “Fold changes, Jurkat, DLG1_2” value stood at 10.9748. Also, the “Fold changes, Jurkat, SCRIB_1” value in assay [3] (setting [6]) is 0.5795. Also, the “Fold changes, Jurkat, SCRIB_2” value in assay [3] (setting [7]) worked out at 0.6928. Moreover, the “Fold changes, Jurkat, SNX27” value in assay [3] (setting [8]) is 23.7963. The “Fold changes, Jurkat, TX1BP3” value in assay [3] (setting [9]) is 0.5031.

B2: CAPRIN1 (protein, UniProt Q14444 2-709, looked up)
Caprin-1: PSATSHSGSGSKSSGPPPPSGSSGSEAAAGAGAAAPASQHPATGTGAVQTEAMKQILGVIDKKLRNLEKKKGKLDDYQERMNKGERLNQDQLDAVSKYQEVTNNLEFAKELQRSFMALSQDIQKTIKKTARREQLMREEAEQKRLKTVLELQYVLDKLGDDEVRTDLKQGLNGVPILSEEELSLLDEFYKLVDPERDMSLRLNEQYEHASIHLWDLLEGKEKPVCGTTYKVLKEIVERVFQSNYFDSTHNHQNGLCEEEEAASAPAVEDQVPEAEPEPAEEYTEQSEVESTEYVNRQFMAETQFTSGEKEQVDEWTVETVEVVNSLQQQPQAASPSVPEPHSLTPVAQADPLVRRQRVQDLMAQMQGPYNFIQDSMLDFENQTLDPAIVSAQPMNPTQNMDMPQLVCPPVHSESRLAQPNQVPVQPEATQVPLVSSTSEGYTASQPLYQPSHATEQRPQKEPIDQIQATISLNTDQTTASSSLPAASQPQVFQAGTSKPLHSSGINVNAAPFQSMQTVFNMNAPVPPVNEPETLKQQNQYQASYNQSFSSQPHQVEQTELQQEQLQTVVGTYHGSPDQSHQVTGNHQQPPQQNTGFPRSNQPYYNSRGVSRGGSRGARGLMNGYRGPANGFRGGYDGYRPSFSNTPNSGYTQSQFSAPRDYSGYQRDGYQQNFKRGSGQSGPRGAPRGRGGPPRPNRGMPQMNTQQVN
As for B2, in assay [1] (bait DLG1_1 PDZ vs MBP control), the Ratio is 30.4665 and the Difference is recorded as 4.929.

B3: TAX1BP3 (protein, UniProt O14907 2-124, looked up)
Tax1-binding protein 3: SYIPGQPVTAVVQRVEIHKLRQGENLILGFSIGGGIDQDPSQNPFSEDKTDKGIYVTRVSEGGPAEIAGLQIGDKIMQVNGWDMTMVTHDQARKRLTKRSEEVVRLLVTRQSLQKAVQQSMLS
As to B3, the Ratio in assay [1] (bait TX1BP3 PDZ vs MBP control) was found to be 86.5427. Besides, in assay [1] (bait TX1BP3 PDZ vs MBP control), the Difference stood at 6.435. For the same molecule, the figures for the “Difference log2” value in assay [2], in assay [3] (bait DLG1_1 PDZ vs MBP) and in assay [3] (bait TX1BP3 PDZ vs MBP) were 10.0746, 4.078 and 12.2171, respectively. The “Ratio TX1BP3/MBP” value came to 1078.31 in assay [2] and 4761.06 in assay [3] (bait TX1BP3 PDZ, fold change of prey). In addition, the “Ratio DLG1_1 / MBP” value in assay [3] (bait DLG1_1 PDZ, fold change of prey) came to 16.8941.

B4: TX1BP3 (protein, UniProt O14907 2-124, looked up)
Tax1-binding protein 3: SYIPGQPVTAVVQRVEIHKLRQGENLILGFSIGGGIDQDPSQNPFSEDKTDKGIYVTRVSEGGPAEIAGLQIGDKIMQVNGWDMTMVTHDQARKRLTKRSEEVVRLLVTRQSLQKAVQQSMLS
Turning to B4, in assay [2], the “Difference log2” value came out at 9.132 and the “Ratio TX1BP3/MBP” value is reported as 561.056.
